T1: human CC chemokine receptor 1 (human CCR1) (human, UniProt P32246 1-355)
T1 construct: endogenous on THP-1 cells in the migration assays; also called hCCR1; CHO-S-hCCR1 (expressing cells)
T1 sequence: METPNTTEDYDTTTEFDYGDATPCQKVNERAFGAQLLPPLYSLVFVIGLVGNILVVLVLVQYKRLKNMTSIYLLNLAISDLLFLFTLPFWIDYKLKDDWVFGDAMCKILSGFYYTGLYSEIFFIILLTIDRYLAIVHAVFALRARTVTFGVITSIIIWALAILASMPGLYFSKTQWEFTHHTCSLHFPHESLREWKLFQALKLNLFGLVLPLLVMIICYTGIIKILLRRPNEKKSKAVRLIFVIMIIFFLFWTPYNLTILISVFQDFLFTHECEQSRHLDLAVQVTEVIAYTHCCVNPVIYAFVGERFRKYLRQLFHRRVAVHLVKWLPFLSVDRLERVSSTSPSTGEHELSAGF


Biological target: T1, human CC chemokine receptor 1 (human …)
Test: flow cytometry on CHO-S-hCCR1 cells; bound = fluorescence 10 times or more that of isotype control chDNP1
Protocol: The antigen affinity of the chKM5908′ antibody, which is a VL-substituted chimeric antibody, was measured by flow cytometry using the CHO-S-hCCR1 cells produced in Example 2. The cells were collected by centrifugation, the supernatant was removed, and the cells were suspended in PBS (Staining Medium, hereinafter, abbreviated as SM) containing 2% fetal bovine serum (FBS), 0.05% NaN₃, and 1 mM EDTA. Next, the cells were seeded in a 96-well plate so that the number of cells is 1×10⁵ per well, and the chKM5908′ antibody was added at each final concentration of 10,000, 2,000, 400, 80, 16, and 3.2 ng/mL, and the reaction was performed at 4° C. for 60 minutes. After washing the cells with SM, Goat F (ab′)₂ Anti-Human IgG PE (γ chain specific) (Southern Biotech) diluted 500-fold with SM was added and reacted at 4° C. for 60 minutes. After washing the cells with SM, the cells were resuspended in 50 μL of SM, and the fluorescence intensity was measured by the flow cytometry (FACS Canto II, BD Biosciences).
1996 June; 33 (9):759-68, hereinafter, referred to as chDNP1)] were determined to be bound to the human CCR1.

Binder | binding result
chKM5908′ mut07 (antibody, V domains shown) VH: QVQLKQSGPGLVQPSQSLSITCTVSGFSLNNYGVHWVRQPPGKGLEWLGVIWSAGTTVYNAAAISRLSISKDDSKSQVFFKMNSLQAGDTAIYYCAKDGSRYYTAMDYWGQGTSVTVSS VL: DVVMTQTPLSLPVSLGDQASIFCRSSQSLVHRNGITFFHWYLQKPGQSPKLLIYKVSNRFSGVPDRFSGSGSGTDFTLKISRVAPDDLGVYFCSQGTHVPPTFGGGTKLEIK | binds
chKM5908′ mut10 (antibody, V domains shown) VH: QVQLKQSGPGLVQPSQSLSITCTVSGFSLNNYGVHWVRQPPGKGLEWLGVIWSAGTTVYNAAFISRLSISKDDSKSQVFFKMNSLQAGDTAIYYCAKDGSRYYAAMDYWGQGTSVTVSS VL: DVVMTQTPLSLPVSLGDQASIFCRSSQSLVHRNGITFFHWYLQKPGQSPKLLIYKVSNRFSGVPDRFSGSGSGTDFTLKISRVAPDDLGVYFCSQGTHVPPTFGGGTKLEIK | binds
chKM5908′ mut25 (antibody, V domains shown) VH: QVQLKQSGPGLVQPSQSLSITCTVSGFSLNNYGVHWVRQPPGKGLEWLGVTWSAGTTVYNAAFISRLSISKDDSKSQVFFKMNSLQAGDTAIYYCAKDGSRYYTAMDYWGQGTSVTVSS VL: DVVMTQTPLSLPVSLGDQASIFCRSSQSLVHRNGITFFHWYLQKPGQSPKLLIYKVSNKFSGVPDRFSGSGSGTDFTLKISRVAPDDLGVYFCSQGTHVPPTFGGGTKLEIK | binds
chKM5908′ mut20 (antibody, V domains shown) VH: QVQLKQSGPGLVQPSQSLSITCTVSGFSLNNYGVHWVRQPPGKGLEWLGVTWSAGTTVYNAAFASRLSISKDDSKSQVFFKMNSLQAGDTAIYYCAKDGSRAYAAMDYWGQGTSVTVSS VL: DVVMTQTPLSLPVSLGDQASIFCRSSQSLVHRNGITFAHWYLQKPGQSPKLLIYKVSNRFSGVPDRFSGSGSGTDFTLKISRVAPDDLGVYFCSQGTHVPPTFGGGTKLEIK | binds
chKM5908′ mut21 (antibody, V domains shown) VH: QVQLKQSGPGLVQPSQSLSITCTVSGFSLNNYGVHWVRQPPGKGLEWLGVTWSAGTTVYNAAFISRLSISKDDSKSQVFFKMNSLQAGDTAIYYCAKDGSRYYTAMDYWGQGTSVTVSS VL: DVVMTQTPLSLPVSLGDQASIFCRSSQSLVHRNGITFFHWYLQKPGQSPKLLIYKISNRFSGVPDRFSGSGSGTDFTLKISRVAPDDLGVYFCSQGTHVPPTFGGGTKLEIK | binds
chKM5908′ mut09 (antibody, V domains shown) VH: QVQLKQSGPGLVQPSQSLSITCTVSGFSLNNYGVHWVRQPPGKGLEWLGVIWSAGTTVYNAAFISRLSISKDDSKSQVFFKMNSLQAGDTAIYYCAKDGSRAYTAMDYWGQGTSVTVSS VL: DVVMTQTPLSLPVSLGDQASIFCRSSQSLVHRNGITFFHWYLQKPGQSPKLLIYKVSNRFSGVPDRFSGSGSGTDFTLKISRVAPDDLGVYFCSQGTHVPPTFGGGTKLEIK | binds
chKM5908′ mut14 (antibody, V domains shown) VH: QVQLKQSGPGLVQPSQSLSITCTVSGFSLNNYGVHWVRQPPGKGLEWLGVTWSAGTTVYNAAFASRLSISKDDSKSQVFFKMNSLQAGDTAIYYCAKDGSRYYTAMDYWGQGTSVTVSS VL: DVVMTQTPLSLPVSLGDQASIFCRSSQSLVHRNGITFFHWYLQKPGQSPKLLIYKVSNRFSGVPDRFSGSGSGTDFTLKISRVAPDDLGVYFCSQGTHVPPTFGGGTKLEIK | binds
chKM5908′ mut24 (antibody, V domains shown) VH: QVQLKQSGPGLVQPSQSLSITCTVSGFSLNNYGVHWVRQPPGKGLEWLGVTWSAGTTVYNAAFASRLSISKDDSKSQVFFKMNSLQAGDTAIYYCAKDGSRAYAAMDYWGQGTSVTVSS VL: DVVMTQTPLSLPVSLGDQASIFCRSSQSLVHRNGITFFHWYLQKPGQSPKLLIYKISNRFSGVPDRFSGSGSGTDFTLKISRVAPDDLGVYFCSQGTHVPPTFGGGTKLEIK | binds
chKM5908′ mut23 (antibody, V domains shown) VH: QVQLKQSGPGLVQPSQSLSITCTVSGFSLNNYGVHWVRQPPGKGLEWLGVTWSAGTTAYNAAFASRLSISKDDSKSQVFFKMNSLQAGDTAIYYCAKDGSRYYTAMDYWGQGTSVTVSS VL: DVVMTQTPLSLPVSLGDQASIFCRSSQSLVHRNGITFFHWYLQKPGQSPKLLIYKISNRFSGVPDRFSGSGSGTDFTLKISRVAPDDLGVYFCSQGTHVPPTFGGGTKLEIK | binds
chKM5908′ mut11 (antibody, V domains shown) VH: QVQLKQSGPGLVQPSQSLSITCTVSGFSLNNYGVHWVRQPPGKGLEWLGVTWSAGTTAYNAAFASRLSISKDDSKSQVFFKMNSLQAGDTAIYYCAKDGSRYYTAMDYWGQGTSVTVSS VL: DVVMTQTPLSLPVSLGDQASIFCRSSQSLVHRNGITFFHWYLQKPGQSPKLLIYKVSNRFSGVPDRFSGSGSGTDFTLKISRVAPDDLGVYFCSQGTHVPPTFGGGTKLEIK | binds

Continued, values first:

binding result | Binder
binds | chKM5908′ mut22 (antibody, V domains shown, also called mAb5-06; mAb 5-06) VH: QVQLKQSGPGLVQPSQSLSITCTVSGFSLNNYGVHWVRQPPGKGLEWLGVIWSAGTTVYNAAAISRLSISKDDSKSQVFFKMNSLQAGDTAIYYCAKDGSRYYTAMDYWGQGTSVTVSS VL: DVVMTQTPLSLPVSLGDQASIFCRSSQSLVHRNGITFFHWYLQKPGQSPKLLIYKISNRFSGVPDRFSGSGSGTDFTLKISRVAPDDLGVYFCSQGTHVPPTFGGGTKLEIK
binds | chKM5908′ mut12 (antibody, V domains shown) VH: QVQLKQSGPGLVQPSQSLSITCTVSGFSLNNYGVHWVRQPPGKGLEWLGVTWSAGTTVYNAAFASRLSISKDDSKSQVFFKMNSLQAGDTAIYYCAKDGSRAYAAMDYWGQGTSVTVSS VL: DVVMTQTPLSLPVSLGDQASIFCRSSQSLVHRNGITFFHWYLQKPGQSPKLLIYKVSNRFSGVPDRFSGSGSGTDFTLKISRVAPDDLGVYFCSQGTHVPPTFGGGTKLEIK
binds | chKM5908′ mut13 (antibody, V domains shown) VH: QVQLKQSGPGLVQPSQSLSITCTVSGFSLNNYGVHWVRQPPGKGLEWLGVTWSAGTTVYNAAFASRLSISKDDSKSQVFFKMNSLQAGDTAIYYCAKDGSRYYAAMDYWGQGTSVTVSS VL: DVVMTQTPLSLPVSLGDQASIFCRSSQSLVHRNGITFFHWYLQKPGQSPKLLIYKVSNRFSGVPDRFSGSGSGTDFTLKISRVAPDDLGVYFCSQGTHVPPTFGGGTKLEIK
binds | chKM5908′ mut15 (antibody, V domains shown) VH: QVQLKQSGPGLVQPSQSLSITCTVSGFSLNNYGVHWVRQPPGKGLEWLGVTWSAGTTVYNAAFISRLSISKDDSKSQVFFKMNSLQAGDTAIYYCAKDGSRAYAAMDYWGQGTSVTVSS VL: DVVMTQTPLSLPVSLGDQASIFCRSSQSLVHRNGITFFHWYLQKPGQSPKLLIYKVSNRFSGVPDRFSGSGSGTDFTLKISRVAPDDLGVYFCSQGTHVPPTFGGGTKLEIK
binds | chKM5908′ mut19 (antibody, V domains shown) VH: QVQLKQSGPGLVQPSQSLSITCTVSGFSLNNYGVHWVRQPPGKGLEWLGVTWSAGTTAYNAAFASRLSISKDDSKSQVFFKMNSLQAGDTAIYYCAKDGSRYYTAMDYWGQGTSVTVSS VL: DVVMTQTPLSLPVSLGDQASIFCRSSQSLVHRNGITFAHWYLQKPGQSPKLLIYKVSNRFSGVPDRFSGSGSGTDFTLKISRVAPDDLGVYFCSQGTHVPPTFGGGTKLEIK
binds | chKM5908′ mut18 (antibody, V domains shown) VH: QVQLKQSGPGLVQPSQSLSITCTVSGFSLNNYGVHWVRQPPGKGLEWLGVIWSAGTTVYNAAAISRLSISKDDSKSQVFFKMNSLQAGDTAIYYCAKDGSRYYTAMDYWGQGTSVTVSS VL: DVVMTQTPLSLPVSLGDQASIFCRSSQSLVHRNGITFAHWYLQKPGQSPKLLIYKVSNRFSGVPDRFSGSGSGTDFTLKISRVAPDDLGVYFCSQGTHVPPTFGGGTKLEIK
binds | chKM5908′ mut17 (antibody, V domains shown) VH: QVQLKQSGPGLVQPSQSLSITCTVSGFSLNNYGVHWVRQPPGKGLEWLGVTWSAGTTVYNAAFISRLSISKDDSKSQVFFKMNSLQAGDTAIYYCAKDGSRYYTAMDYWGQGTSVTVSS VL: DVVMTQTPLSLPVSLGDQASIFCRSSQSLVHRNGITFAHWYLQKPGQSPKLLIYKVSNRFSGVPDRFSGSGSGTDFTLKISRVAPDDLGVYFCSQGTHVPPTFGGGTKLEIK
binds | chKM5908′ mut08 (antibody, V domains shown) VH: QVQLKQSGPGLVQPSQSLSITCTVSGFSLNNYGVHWVRQPPGKGLEWLGVIWSAGTTVYNAAFASRLSISKDDSKSQVFFKMNSLQAGDTAIYYCAKDGSRYYTAMDYWGQGTSVTVSS VL: DVVMTQTPLSLPVSLGDQASIFCRSSQSLVHRNGITFFHWYLQKPGQSPKLLIYKVSNRFSGVPDRFSGSGSGTDFTLKISRVAPDDLGVYFCSQGTHVPPTFGGGTKLEIK

Source: patent US20240026017A1 (Kyowa Kirin, published 2024)
